Experimental data as given in patent US20020037996A1 (INSTITUTE OF PHYSICAL AND CHEMICAL RESEARCH, published 2002).

Target: T1, nitrile hydratase (NHase) β subunit derived from Rhodococcus sp. N-771, in the nitrosylated (inactive) enzyme (Rhodococcus sp. N-771, UniProt P13449 1-212)
T1 sequence (looked up): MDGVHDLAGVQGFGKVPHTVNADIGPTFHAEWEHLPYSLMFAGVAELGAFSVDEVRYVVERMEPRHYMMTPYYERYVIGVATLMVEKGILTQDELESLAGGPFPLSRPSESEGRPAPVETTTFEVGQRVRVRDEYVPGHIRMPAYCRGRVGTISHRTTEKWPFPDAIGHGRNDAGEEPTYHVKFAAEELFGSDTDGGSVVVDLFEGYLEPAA
Experiment: X-ray crystallography of nitrosylated NHase, 1.7 Å; hetero-tetramer (αβ)2 in the crystal, dimer-tetramer equilibrium in solution by sedimentation equilibrium and dynamic light scattering
From the text: Two αβ hetero-dimers existed in an asymmetric unit of the crystal. […] The structural model was crystallographically refined at 1.7 Å resolution (R-factor 0.179, R-free0.228). […] The non-heme iron center was located at the interface between the two subunits in the hetero-dimer.

binding result: binds
B1: nitrile hydratase (NHase) α subunit derived from Rhodococcus sp. N-771, in the nitrosylated (inactive) enzyme (enzyme, UniProt P13448 2-207, looked up)
chain: SVTIDHTTENAAPAQAPVSDRAWALFRALDGKGLVPDGYVEGWKKTFEEDFSPRRGAELVARAWTDPEFRQLLLTDGTAAVAQYGYLGPQGEYIVAVEDTPTLKNVIVCSLCSCTAWPILGLPPTWYKSFEYRARVVREPRKVLSEMGTEIASDIEIRVYDTTAETRYMVLPQRPAGTEGWSQEQLQEIVTKDCLIGVAIPQVPTV
modifications: cysteinesulfinic acid (Cys-SO2H) at 112; cysteinesulfenic acid (Cys-SOH) at 114; non-heme iron with bound NO coordinated by Cys109, Cys112, Ser113, Cys114
